Measurements reported in patent US20250034222A1, “IL-38 VARIANTS” (Monash University, priority 2021, published 2025).
Entries after “also recorded” stand apart in the source; their conditions may differ.

Legend:
[1] = SEC analysis of monomer:dimer proportion of IL-38 variants upon purification; type: physicochemical; conditions: for capacity to form a homodimer / monomer: SEC upon purification, FIG. 11
Method: Recombinant IL-38 variants were expressed in BL21-CodonPlus(DE3)-RIL cells (Stratagene) by 0.5 mM IPTG induction (OD600 0.8) overnight at 18° C. Cells expressing IL-38 variants were lysed by sonication in 50 mM Tris-HCl (pH 8.0), 500 mM NaCl, 3 mM β-mercaptoethanol, and 30 mM imidazole. Cells were clarified by centrifugation, filtered through a 0.8 μm membrane, and bound to Ni-NTA resin (Qiagen) for 1 hour at 4° C. on a rotating platform. The resin was washed with 300 ml of 50 mM Tris-HCl (pH 8.0), 500 mM NaCl, 3 mM β-mercaptoethanol, and 30 mM imidazole. The protein was eluted from the Ni-NTA resin (Qiagen) in a buffer containing 50 mM Tris-HCl (pH 8.0), 500 mM NaCl, 3 mM β-mercaptoethanol, and 400 mM imidazole. Protein was further purified on a Superdex 75 Increase 10/300 GL column (Cytiva Life Sciences) in 10 mM HEPES (pH 7.2), 150 mM NaCl, and 2 mM DTT.
The number and elution volume of the elution peaks are indicative of whether the size of the recombinant protein corresponds to monomeric or dimeric IL-38 conformations or both conformations. The proportion of monomer: dimer for each mutant (FIGS. 9 and 11) were calculated by comparing the area under the monomer and dimer peaks from three individual purifications.

[2] = Analytical SEC of IL-38 variants upon extended incubation; type: physicochemical; conditions: 0.165 mg/ml, 37° C., 16 hours, Sorensen's phosphate buffer pH 7.0, 5% glycerol
Method: To examine the monomer-dimer equilibrium upon extended incubation, indicated IL-38 variants (residues 3-152, C-terminal His6 tag) were incubated at 0.165 mg/ml and 37° C. for 16 hours in Sorensen's phosphate buffer (0.13 M, pH 7.0) with 5% (v/v) glycerol. The monomer: dimer proportion was examined by analytical SEC on a Superdex 75 Increase 10/300 GL column (Cytiva Life Sciences).

IRF3/7 = experiment: Poly (I:C)-induced IRF3/7 Quanti-Luc in A549-Dual reporter cells; type: cell-based, Human; conditions: 1 ng/ml Poly (I:C) LMW, 100 nM/l to 100 fM/l variant, 20 h, dexamethasone 5 nM benchmark
Method: FIG. 17: IL-38-Fc reduces Poly (I:C)-induced IRF3/7 Quanti-Luc in Human NF-kB-SEAP & IRFLuc Reporter A549-Dual cells from Invivogen (lung epithelial cells). A549-Dual cells were pretreated for 1 h with lipofectamine and (1 ng/ml) Poly (I:C) low molecular weight (LMW) and then stimulated dose dependently (A) 100 nM/l, (B) 1 nM/l, (C) 10 pM/l, (D) 100 fM/l with different IL-38 variants or dexamethasone (5 nM) as benchmark for 20 h. […]
6 μl of A549 Dual cell supernatants or plain stimulation media (background control) and 15 μl of QUANTI-Luc™ solution (InvivoGen) were added to a 384-well plate (Opti-plate-384, PerkinElmer, #6007290) and immediately measured as per manufacturer's instructions. After background subtraction, the %-change in luciferase activity of IL-38 variants (1 nm/l)+Poly (I:C) treated conditions over poly (I:C)+vehicle-treated cells were calculated ([…] of cells treated with poly (I:C)+vehicle=100%).

[3] = SEC, area under monomer and dimer peaks

Molecule | capacity to form a homodimer / monomer [1] | monomer-dimer equilibrium upon extended incubation [2] | dimer formed upon purification [1, 3] | monomer upon purification [1, 3] | reduction in poly (I:C)-induced IRF3/7 (Quanti-Luc) (IRF3/7)
IL-38 (A51D): Variant of IL-38 that forms monomer; SNP rs6743376, mutation at residue 51 (A51D), residues 3-152 (protein) SLPMARYYIIKYADQKALYTRDGQLLVGDPVADNCCAEKICILPNRGLDRTKVPIFLGIQGGSRCLACVETEEGPSLQLEDVNIEELYKGGEEATRFTFFQSSSGSAFRLEAAAWPGWFLCGPAEPQQPVQLTKESEPSARTKFYFEQSW | reduced capacity to form a homodimer | more stable monomer; also recorded: stable monomer |  |  | 
WT IL-38: Wild-type IL-38, residues 3-152, alanine at position 51 (called D51A) (protein) SLPMARYYIIKYADQKALYTRDGQLLVGDPVADNCCAEKICILPNRGLARTKVPIFLGIQGGSRCLACVETEEGPSLQLEDVNIEELYKGGEEATRFTFFQSSSGSAFRLEAAAWPGWFLCGPAEPQQPVQLTKESEPSARTKFYFEQSW |  | slow equilibrium between the two states | ~20% | ~80% | slightly less potent than A51D (non-fused) IL-38
T53N: Variant of IL-38 T53N with increased capacity to form monomer, residues 3-152 (protein) SLPMARYYIIKYADQKALYTRDGQLLVGDPVADNCCAEKICILPNRGLARNKVPIFLGIQGGSRCLACVETEEGPSLQLEDVNIEELYKGGEEATRFTFFQSSSGSAFRLEAAAWPGWFLCGPAEPQQPVQLTKESEPSARTKFYFEQSW | reduced capacity to form a homodimer |  |  |  | 
V55Q: Variant of IL-38 V55Q with increased capacity to form monomer, residues 3-152 (protein) SLPMARYYIIKYADQKALYTRDGQLLVGDPVADNCCAEKICILPNRGLARTKQPIFLGIQGGSRCLACVETEEGPSLQLEDVNIEELYKGGEEATRFTFFQSSSGSAFRLEAAAWPGWFLCGPAEPQQPVQLTKESEPSARTKFYFEQSW | reduced capacity to form a homodimer |  |  |  | 
V55T: Variant of IL-38 V55T with increased capacity to form monomer, residues 3-152 (protein) SLPMARYYIIKYADQKALYTRDGQLLVGDPVADNCCAEKICILPNRGLARTKTPIFLGIQGGSRCLACVETEEGPSLQLEDVNIEELYKGGEEATRFTFFQSSSGSAFRLEAAAWPGWFLCGPAEPQQPVQLTKESEPSARTKFYFEQSW | reduced capacity to form a homodimer |  |  |  | 
ΔT53: Locked homodimer IL-38 variant, T53 deleted (protein, UniProt Q8WWZ1 1-152, looked up, variant T53*) Interleukin-1 family member 10: MCSLPMARYYIIKYADQKALYTRDGQLLVGDPVADNCCAEKICILPNRGLARKVPIFLGIQGGSRCLACVETEEGPSLQLEDVNIEELYKGGEEATRFTFFQSSSGSAFRLEAAAWPGWFLCGPAEPQQPVQLTKESEPSARTKFYFEQSW | stable locked dimer | stable as a dimer |  |  | only marginal reduction
